Residue numbers refer to the chain shown, from its start. Like-named read-outs stand apart in the source and are kept apart here.
What was measured:
[1] = molecular target: T1, LTC4 synthase (Homo sapiens, UniProt Q16873); assay: Dose-response assay using MK886: conversion of LTA4-ME to LTC4-ME by lysates of transfected COS-7 cells; format: biochemical
T1 construct: expressed in transfected cells; host or cells: COS-7 cells (pcDNA3 clone from KG-1 library), cell lysate
T1 sequence (Q16873 1-150): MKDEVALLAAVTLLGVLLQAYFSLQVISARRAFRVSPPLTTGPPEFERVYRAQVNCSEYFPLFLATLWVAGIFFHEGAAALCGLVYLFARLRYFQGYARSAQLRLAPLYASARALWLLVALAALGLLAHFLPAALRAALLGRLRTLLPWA
Procedure: After 2.8 min more, solvent B was increased linearly to 90% over 2 min and was maintained at this level for an additional 10 min. UV absorbance at 280 nm and the UV spectra were recorded simultaneously. The retention times for PGB2 and LTC4-ME were 8.5 and 10.1 min, respectively.
DOSE-RESPONSE ASSAY USING MK886: Cell lysates of the COS-7 cell transfectant containing SEQ ID NO.:1 were incubated with 20 micromolar LTA4-ME, 20 mM GSH, 5 mM MgCl2 in HEPES buffer (pH 7.6), in the presence of 0-10 micromolar MK886 for 10 minutes at room temperature. Reactions were stopped by addition of 2 volumes of methanol containing 200 ng PGB2. Samples were analyzed by RP-HPLC.

[2] = molecular target: T1, LTC4 synthase; conditions: high doses; Lam et al.; cited from earlier work
[3] = molecular target: T2, LTC4 synthase (Homo sapiens, UniProt Q16873, Y93F); assay: Enzyme kinetics of purified recombinant wild-type or mutant LTC4 synthase; format: biochemical
T2 construct: made in house; host or cells: COS-7 cells
T2 sequence (Q16873 1-150 Y93F): T1 sequence (Q16873 1-150) with Y93F
Procedure: (§1) PURIFICATION AND KINETIC ANALYSIS OF SELECTED EXPRESSED PROTEINS: Recombinant LTC4 synthases were purified by S-hexyl GSH agarose affinity chromatography (Lam et al., Eur. J. Biochem., 238:606, 1996). Solubilized microsomes were loaded onto a 2.5-cm×1.5-cm open bed of S-hexyl GSH resin equilibrated with 50 mM HEPES, 1 mM EDTA, 5 mM β-mercaptoethanol, 0.1% Triton X-102, 10% glycerol, pH 7.6 (Buffer A) at 4° C. The column was washed sequentially with 5 volumes each of buffer A/0.3 M NaCl/20 mM GSH/0.1% DOC, buffer A/2.5 mM S-hexyl GSH/2.5 mM S-octyl GSH/0.1% DOC, and buffer A/0.1% DOC; and the enzyme was eluted with 5 fractions of 1 volume each of 15 mM probenecid in buffer A containing 0.1% DOC. The enzyme was purified nearly to homogeneity as determined by the presence in silver stained SDS-PAGE gels of a predominant 18-kDa protein band with a minor 34-kDa band; only the 18-kDa band interacted with anti-LTC4 synthase antibody on immunoblot analysis. After sequential concentration and dilution with a Microsep 10K centrifugal concentrator (Filtron Technology Corp., Northborough, Mass.) to remove probenecid, the protein concentration was estimated by staining a SDS-PAGE gel of the purified enzyme and a standard amount of lysozyme resolved in the same gel with Coomassie blue dye and comparing their intensities.
(§2) To examine the enzyme kinetics of recombinant wild-type or mutant LTC4 synthase, 3-100 ng portions of purified enzyme were incubated in 200 μl of HEPES buffer, pH 7.6, containing 10 mM MgC'2 with either 20 μM LTA4-ME and various concentration of GSH or with 10 mM GSH and various concentrations of LTA4-ME for 2 min at room temperature. The reactions were terminated by the addition of 3 vol of methanol containing 200 ng PGB2. Samples were then analyzed for LTC4-ME by RP-HPLC.

[4] = test system: LTC4 synthase; assay: as above; format: biochemical, human; conditions: purified recombinant enzyme
Procedure: as §1, §2

[5] = molecular target: T2, LTC4 synthase; assay: Effect of pH on enzymatic conjugation by wild-type and mutant enzyme; format: biochemical; conditions: microsomal assay, 5-fold more Y93F
Procedure: The study the effect of pH on enzymatic conjugation by wild-type and mutant enzyme, 1-μl or 5-μl (Y93F) samples of solubilized COS cell microsomes were incubated with 10 μM LTA4-ME and 10 mM GSH in bis-Tris propane buffer containing 10 mM MgCl2 at various pH levels. The reactions were carried out at room temperature for 2 min and were stopped by the addition of 3 vol of methanol and 10 μl of acetic acid. Product generation was quantitated by RP-HPLC as described above.

[6] = test system: LTC4 synthase; assay: Conjugation of LTA4-ME with GSH by solubilized microsomes of COS cells transfected with wild-type or mutant LTC4 synthase
Procedure: OF THE EXPRESSED PROTEINS: COS-7 cells were transfected with either wild-type LTC4 synthase cDNA or the mutated LTC4 synthase cDNA by DEAE-dextran transfection (Lam et al., Proc. Natl. Acad. Sci. USA., 91:7663, 1994). Three days after transfection, the cells were harvested by treatment with trypsin and suspended in microsomal buffer (50 mM HEPES buffer pH 7.9 containing 2 mM EDTA and 10 mM β-mercaptoethanol) at a concentration of 5×10^6 cells/ml. The cells were lysed by sonication with a Branson microtip sonicator (Danbury, Conn.) at a setting of 7. Cell lysates were centrifuged at 100,000×g for 60 min at 4° C., and the pellets (microsomes) were resuspended in microsomal buffer and were solubilized by the addition of 0.4% Triton X-102, 0.4% sodium deoxycholate (DOC), and 10% glycerol and stirring at 4° C. for 45 min.
The function of each mutant enzyme as well as the wild-type enzyme was first screened by the incubation of 1-10 μl of solubilized COS cell microsomes with 10 mM GSH and 20 μM LTA4-ME in 200 μl 50 mM HEPES buffer containing 10 mM MgCl2, pH 7.6. The reactions were carried out at room temperature for 10 min and stopped by the addition of 3 vol methanol containing 200 ng prostaglandin B2 (PGB2) as an internal standard. LTC4-ME levels in the samples were determined with high performance liquid chromatography (HPLC).
Reverse phase (RP)-HPLC was carried out with a model 126 dual pump system and model 167 scanning UV detector (Beckman Instruments) controlled by an Gateway 2000 P4D66 computer equipped with Beckman System Gold software. Samples were applied to a 5-μm 4.6×250-mm C18 Ultrasphere reverse phase column (Beckman Instruments) equilibrated with a solvent of methanol/acetonitrile/water/acetic acid (10:15:100:0.2, v/v), pH 6.0 (solvent A). Immediately after the sample was injected, the column was eluted at a flow rate of 1 ml/min with a programmed concave gradient (System Cold curve 6) to 20% solvent A and 80% solvent B (pure methanol) over 0.2 min with continuation isocratically for 5.8 min. Beginning at 6 min, solvent B was increased linearly to 100% over 0.2 min and was maintained at this level for 7 min more. The ultraviolet absorbance at 280 nm and the ultraviolet spectra were recorded simultaneously. The retention times for PGB2 and LTC4-ME were 7.4 and 8.9 min, respectively. LTC4-ME was quantitated by calculating the ratio of the peak area to the area of the internal standard PGB2.

| Molecule | IC50 ([1]; 20 μM LTA4-ME, COS cell lysates, read-out: IC50, inhibition of conversion of LTA4-ME to LTC4-ME) | inhibition of enzyme activity ([1]; at 10 μM) | IC50 ([1]; transfected COS cell lysates, read-out: ID50, inhibition of LTC4 synthase activity) | inhibition of LTC4 synthase activity [2] | reduction in Vmax ([3]; isolated recombinant enzyme, versus wild type) | catalytic efficiency relative to wild-type enzyme ([3]; purified recombinant enzyme) | Vmax LTC4-ME [4] | Km ([4]; read-out: Km GSH) | Km ([4]; read-out: Km LTA4-ME) | pH optimum of conjugation [5] | Function ([6]; COS cell microsome) | conjugation function of transfected COS cell microsomes ([6]; compared to wild-type construct) | Km ([6]; read-out: Km GSH, COS cell microsome) | Km ([6]; read-out: Km LTA4-ME, COS cell microsome) |
| --- | --- | --- | --- | --- | --- | --- | --- | --- | --- | --- | --- | --- | --- | --- |
| CC(C)c1ccc2c(c1)c(SC(C)(C)C)c(CC(C)(C)C(=O)O)n2Cc1ccc(Cl)cc1 [MK-886] | < 3000 nM | more than 90% | ~3000 nM | could also inhibit LTC4 synthase activity when administered at high doses | – | – | – | – | – | – | – | – | – | – |
| Y93F: LTC4 synthase point mutant | – | – | – | – | greater than 90% | 1/260 | 1.4 µmol/min/mg | 9.9 mM | 0.0054 mM | A shift in the optimum to a higher pH | 5 % of WT | associated with a reduction in function | 10 mM | 0.02 mM |
